In patent US20250304706A1 (Astellas, published 2025):

Target: T1, CD3εδ complex protein (human; alpaca, UniProt P07766 23-126; P04234 22-105)
T1 construct: they are not part of the secreted protein; also called human CD3; CD386 complex protein
Test: ELISA, CD3 complex immobilized
Experimental: Binding activities of the anti-TSPAN8/anti-CD3 bispecific antibodies BTE-0001 to BTE-0067 to CD3 were evaluated by the ELISA. ELISA was performed according to a conventional method. The […] complex protein obtained in Example 1-3 was immobilized on a plate. BTE-0001 to BTE-0067 were used as the test antibodies. As a secondary antibody, Goat anti-Human IgG Fc, Multi-Species SP ads-HRP (2014-05, available from SouthernBiotech) was used. TMB+Substrate-Chromogen (S1599, available from Dako) was used as the detection reagent. Infinite M200pro (available from Tecan) was used to measure the absorbance. The EC50 values were calculated using variable slope model (four parameters) in GraphPad Prism with the maximum value in the same plate fixed at the top and the minimum value in the blank in the same plate fixed at the bottom. Since BTE-0001 was always measured in each plate as a control, only the EC50 value of BTE-0001 was expressed as the average value of a plurality of plates. […]

T1 sequence (P07766 23-126 limits assumed, stated change not applied, form in doubt, chain 1 of 2): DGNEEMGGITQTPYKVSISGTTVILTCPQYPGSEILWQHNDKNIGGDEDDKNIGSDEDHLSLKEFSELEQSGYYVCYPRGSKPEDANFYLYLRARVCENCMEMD
T1 sequence (P04234 22-105 limits assumed, stated change not applied, form in doubt, chain 2 of 2): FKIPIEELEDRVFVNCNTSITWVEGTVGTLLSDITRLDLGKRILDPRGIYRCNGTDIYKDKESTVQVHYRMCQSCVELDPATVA

Binder	EC50 [µg/mL]
BTE-0147 (bispecific antibody, human IgG1, kappa, L234A L235A, anti-CD37/anti-CD3) heavy: QVQLQQWGAGLLKPSETLSLTCAVYGGSFSPYYWSWIRQPPGKGLEWIGEINHSGSTNYNPSLKSRVTISVDTSKNQFSLKLSSVTAADTAVYYCARRAGDFDYWGQGTLVTVSSASTKGPSVFPLAPSSKSTSGGTAALGCLVKDYFPEPVTVSWNSGALTSGVHTFPAVLQSSGLYSLSSVVTVPSSSLGTQTYICNVNHKPSNTKVDKKVEPKSCDKTHTCPPCPAPEAAGGPSVFLFPPKPKDTLMISRTPEVTCVVVDVSHEDPEVKFNWYVDGVEVHNAKTKPREEQYNSTYRVVSVLTVLHQDWLNGKEYKCKVSNKALAAPIEKTISKAKGQPREPQVYTLPPSRDELTKNQVSLSCAVKGFYPSDIAVEWESNGQPENNYKTTPPVLDSDGSFFLVSKLTVDKSRWQQGNVFSCSVMHEALHNHYTQKSLSLSPGK light: not shown scFv: not shown	0.0317
BTE-0148 (bispecific antibody, human IgG1, kappa, L234A L235A, anti-CD37/anti-CD3) heavy: QVQLQQWGAGLLKPSETLSLTCAVYGGSFSPYYWSWIRQPPGKGLEWIGEINHSGSTNYNPSLKSRVTISVDTSKNQFSLKLSSVTAADTAVYYCARRAGDFDYWGQGTLVTVSSASTKGPSVFPLAPSSKSTSGGTAALGCLVKDYFPEPVTVSWNSGALTSGVHTFPAVLQSSGLYSLSSVVTVPSSSLGTQTYICNVNHKPSNTKVDKKVEPKSCDKTHTCPPCPAPEAAGGPSVFLFPPKPKDTLMISRTPEVTCVVVDVSHEDPEVKFNWYVDGVEVHNAKTKPREEQYNSTYRVVSVLTVLHQDWLNGKEYKCKVSNKALAAPIEKTISKAKGQPREPQVYTLPPSRDELTKNQVSLSCAVKGFYPSDIAVEWESNGQPENNYKTTPPVLDSDGSFFLVSKLTVDKSRWQQGNVFSCSVMHEALHNHYTQKSLSLSPGK light: not shown scFv: not shown	0.0364

Second part, the binder after the results:

EC50 [µg/mL]	Binder
0.36	BTE-0152 (bispecific antibody, human IgG1, kappa, L234A L235A, anti-CD37/anti-CD3) heavy: QVQLQQWGAGLLKPSETLSLTCAVYGGSFSPYYWSWIRQPPGKGLEWIGEINHSGSTNYNPSLKSRVTISVDTSKNQFSLKLSSVTAADTAVYYCARRAGDFDYWGQGTLVTVSSASTKGPSVFPLAPSSKSTSGGTAALGCLVKDYFPEPVTVSWNSGALTSGVHTFPAVLQSSGLYSLSSVVTVPSSSLGTQTYICNVNHKPSNTKVDKKVEPKSCDKTHTCPPCPAPEAAGGPSVFLFPPKPKDTLMISRTPEVTCVVVDVSHEDPEVKFNWYVDGVEVHNAKTKPREEQYNSTYRVVSVLTVLHQDWLNGKEYKCKVSNKALAAPIEKTISKAKGQPREPQVYTLPPSRDELTKNQVSLSCAVKGFYPSDIAVEWESNGQPENNYKTTPPVLDSDGSFFLVSKLTVDKSRWQQGNVFSCSVMHEALHNHYTQKSLSLSPGK light: not shown scFv: not shown
0.209	BTE-0149 (bispecific antibody, human IgG1, kappa, L234A L235A, anti-CD37/anti-CD3) heavy: QVQLQQWGAGLLKPSETLSLTCAVYGGSFSPYYWSWIRQPPGKGLEWIGEINHSGSTNYNPSLKSRVTISVDTSKNQFSLKLSSVTAADTAVYYCARRAGDFDYWGQGTLVTVSSASTKGPSVFPLAPSSKSTSGGTAALGCLVKDYFPEPVTVSWNSGALTSGVHTFPAVLQSSGLYSLSSVVTVPSSSLGTQTYICNVNHKPSNTKVDKKVEPKSCDKTHTCPPCPAPEAAGGPSVFLFPPKPKDTLMISRTPEVTCVVVDVSHEDPEVKFNWYVDGVEVHNAKTKPREEQYNSTYRVVSVLTVLHQDWLNGKEYKCKVSNKALAAPIEKTISKAKGQPREPQVYTLPPSRDELTKNQVSLSCAVKGFYPSDIAVEWESNGQPENNYKTTPPVLDSDGSFFLVSKLTVDKSRWQQGNVFSCSVMHEALHNHYTQKSLSLSPGK light: not shown scFv: not shown
